Laboratory results published in PMC7072298 (2020).

B1: 45-kDa gelatin-binding FN fragment (FN45) (domain or fragment)
chain: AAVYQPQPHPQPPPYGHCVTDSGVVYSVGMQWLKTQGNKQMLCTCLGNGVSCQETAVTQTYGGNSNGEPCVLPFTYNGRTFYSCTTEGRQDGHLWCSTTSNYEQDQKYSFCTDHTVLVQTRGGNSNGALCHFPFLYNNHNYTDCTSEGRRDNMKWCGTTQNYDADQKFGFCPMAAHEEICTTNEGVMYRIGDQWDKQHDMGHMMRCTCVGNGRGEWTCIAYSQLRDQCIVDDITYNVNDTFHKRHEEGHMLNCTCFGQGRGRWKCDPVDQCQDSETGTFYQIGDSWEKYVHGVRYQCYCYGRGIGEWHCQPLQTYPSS
B2: N-terminal FN 30-kDa heparin-binding fragment (FN30) (domain or fragment)
chain: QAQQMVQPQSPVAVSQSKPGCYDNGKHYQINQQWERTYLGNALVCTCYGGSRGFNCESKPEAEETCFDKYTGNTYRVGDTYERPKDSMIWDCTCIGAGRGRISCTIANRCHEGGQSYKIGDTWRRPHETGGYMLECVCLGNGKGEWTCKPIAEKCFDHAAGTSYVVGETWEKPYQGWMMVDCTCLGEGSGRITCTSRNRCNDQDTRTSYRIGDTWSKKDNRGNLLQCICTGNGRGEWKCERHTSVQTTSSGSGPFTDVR

Target: HSP90αM domain (solid phase assays of Figure 2B and 2C)
Assay: ELISA

| Binder | Kd |
| --- | --- |
| B1 | 222 nM |
| B2 | 65.1 nM |
